Test results from PMC12994607, “Screening pertactin-specific antibodies and evaluating competitive epitope recognition by native mass spectrometry” (Chemical Science, 2026).

T1: Mature Pertactin (Prn) (Bordetella pertussis, strain  …)
T1 construct: pertactin (Prn) of Bordetella pertussis, mature passenger domain; the legend on D1:p9 names 1DAB instead; also called wild-type Prn; wild type Prn
T1 chain: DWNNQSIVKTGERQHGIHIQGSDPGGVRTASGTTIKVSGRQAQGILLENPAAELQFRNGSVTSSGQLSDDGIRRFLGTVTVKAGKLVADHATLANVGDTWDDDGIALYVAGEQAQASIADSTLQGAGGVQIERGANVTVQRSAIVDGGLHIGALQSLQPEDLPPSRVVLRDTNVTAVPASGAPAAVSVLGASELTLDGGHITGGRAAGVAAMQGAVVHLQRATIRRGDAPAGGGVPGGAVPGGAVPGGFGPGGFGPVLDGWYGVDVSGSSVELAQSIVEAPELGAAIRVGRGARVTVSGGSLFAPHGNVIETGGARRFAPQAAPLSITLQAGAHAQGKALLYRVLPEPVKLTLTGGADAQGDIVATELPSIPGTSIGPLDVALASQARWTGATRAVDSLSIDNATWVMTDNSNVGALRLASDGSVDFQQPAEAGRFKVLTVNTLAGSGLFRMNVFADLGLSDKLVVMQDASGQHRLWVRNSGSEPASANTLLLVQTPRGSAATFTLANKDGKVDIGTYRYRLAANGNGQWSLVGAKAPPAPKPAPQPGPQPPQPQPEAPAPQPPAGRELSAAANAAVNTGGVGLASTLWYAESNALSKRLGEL

T2: mature pertactin (Prn), wild type (Bordetella pertussis, strain  …)
T2 construct: Pertactin (Prn) of Bordetella pertussis, mature N-terminal passenger domain (63 kDa), cut from the precursor; Kept in 0.06% C10E5 detergent for native MS; also called Prn antigen; wild-type Prn
T2 chain: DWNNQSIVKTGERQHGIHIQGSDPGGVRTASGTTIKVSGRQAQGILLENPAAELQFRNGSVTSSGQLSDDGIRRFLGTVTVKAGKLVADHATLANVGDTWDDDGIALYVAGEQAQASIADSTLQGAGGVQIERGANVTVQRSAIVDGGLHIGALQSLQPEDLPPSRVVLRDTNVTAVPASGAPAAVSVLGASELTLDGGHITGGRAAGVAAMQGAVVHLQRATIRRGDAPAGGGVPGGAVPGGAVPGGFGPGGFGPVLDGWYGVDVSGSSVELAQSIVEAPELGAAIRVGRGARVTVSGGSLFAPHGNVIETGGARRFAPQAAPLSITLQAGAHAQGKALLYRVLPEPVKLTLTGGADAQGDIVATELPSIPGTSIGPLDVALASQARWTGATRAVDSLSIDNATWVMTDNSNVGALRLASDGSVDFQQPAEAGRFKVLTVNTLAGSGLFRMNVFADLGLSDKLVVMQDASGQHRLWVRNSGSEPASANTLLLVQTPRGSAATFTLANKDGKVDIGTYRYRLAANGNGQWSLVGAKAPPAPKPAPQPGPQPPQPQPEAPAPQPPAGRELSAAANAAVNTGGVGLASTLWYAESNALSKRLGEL

T3: ΔC-term Prn variant (Bordetella pertussis, strain  …, point mutant)
T3 construct: Pertactin (Prn) of Bordetella pertussis, mature passenger domain from which 64 residues at the C-terminus (with the R2 repeat region; unstructured in the X-ray structure) were truncated; also called ΔC-terminal
T3 chain: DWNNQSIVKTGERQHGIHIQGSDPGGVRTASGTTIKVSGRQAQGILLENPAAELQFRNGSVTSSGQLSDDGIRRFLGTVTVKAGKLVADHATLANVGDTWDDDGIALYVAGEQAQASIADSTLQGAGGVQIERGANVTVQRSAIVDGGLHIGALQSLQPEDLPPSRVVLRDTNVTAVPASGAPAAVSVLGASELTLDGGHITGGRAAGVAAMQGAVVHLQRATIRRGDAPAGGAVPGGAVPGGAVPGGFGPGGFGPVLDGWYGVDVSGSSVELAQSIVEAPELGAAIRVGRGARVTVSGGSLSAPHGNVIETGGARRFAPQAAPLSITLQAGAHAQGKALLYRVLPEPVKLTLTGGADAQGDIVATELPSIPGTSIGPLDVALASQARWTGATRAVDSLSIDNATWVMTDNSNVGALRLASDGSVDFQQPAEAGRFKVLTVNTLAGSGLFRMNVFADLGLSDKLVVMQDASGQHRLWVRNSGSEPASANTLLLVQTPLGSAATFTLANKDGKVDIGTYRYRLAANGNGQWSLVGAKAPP


What was measured:
Settings in all cases: both partners purified
[1] = molecular target: T1, Mature Pertactin (Prn); assay: BLI; mAb (10 nM) loaded on anti-mouse IgG Fc (AMC) biosensors, dipped into Prn at 50, 25, 12.5, 6.25, 3.125 and 1.56 nM; kinetic buffer (HEPES buffer with 0.01% BSA and 0.002% Tween-20); Octet Red96; 1:1 binding model, global fit, single replicate
[2] = molecular target: T2, mature pertactin (Prn), wild type; assay: native MS; titration: fixed 2 µM mAb, Prn 0.5 µM to 8 µM, 250 mM ammonium acetate with 0.06% C10E5
[3] = molecular target: T3, ΔC-term Prn variant; assay: native MS; 2 µM mAb and 2 µM Prn or Prn variant (equimolar), 250 mM ammonium acetate with 0.06% C10E5, 1 hour at room temperature, nano-ESI on Q Exactive UHMR

Binder | Kd [1] [nM] | stoichiometry N [2] [Prn per mAb] | also measured
2B1 monoclonal antibody (antibody, V domains shown, 2B1 HC, whole heavy chain as printed: variable region with mouse IgG2a constant domains; 2B1 LC, whole light chain as printed; full-length mouse IgG2a; measured mass 149,064 Da; also called 2B1 mAb; 2B1 Ab; source: ExpiCHO-S, transfected, purified (HiTrap Protein A); copies: 2 + 2) VH: QVQLQQSGPELVKPGASVKISCKASGYSFTDYNMYWVKQSHGKSLEWIGYFDPYNGGIYYNQNFKGRATLTVDKSSSTAFMHLNSLTSEDSAVYYCARGGGWFRGFTYWGQGTLVTVSR VL: IQMTQSTSSLSASLGDRVTISCRASQDISNYLNWYQQKPDGTLNLLIYYTSRLHSGVPSRFSGSGSGTDYSLTISNLEQEDIATYFCQQGNTLPYTFGGGTKLEIK | < 1 | – | –
1E7 monoclonal antibody (antibody, V domains shown, variable region of 1E7; mouse IgG2a heavy chain constant domains; mouse light chain constant domain; Full-length mouse IgG2a; source: ExpiCHO-S, transfected, purified (Protein A); copies: 2 + 2) VH: QVQLQQPAAELARPGASVKMSCRASGYTFTTYTMHWVKQRPGQGLEWIGYINPSSGYTDYNQKFRDKITLTADKSSSTAYMQLSSLTSGDSAVYYCAREDYYGQGFTYWGQGTLVTVSR VL: IVMTQSTSSLSASLGDRVTISCRASQDISNYLNWYQQKPDGTVKLLIYYTSRLHSGVPSRFSGSGSGTDYSLTISNLEQEDIATYFCQQGNMFPWTFGGGTKLELK | – | 2 | –
1E7 monoclonal antibody (antibody, V domains shown, 1E7 HC, whole heavy chain as printed: variable region with mouse IgG2a constant domains; a predicted N-linked glycosylation site (NPS) in CDR2 is highlighted; 1E7 LC, whole light chain as printed; full-length mouse IgG2a; measured mass 149,106 Da; also called 1E7 mAb; 1E7 Ab; source: ExpiCHO-S, transfected, purified (HiTrap Protein A); copies: 2 + 2) VH: QVQLQQPAAELARPGASVKMSCRASGYTFTTYTMHWVKQRPGQGLEWIGYINPSSGYTDYNQKFRDKITLTADKSSSTAYMQLSSLTSGDSAVYYCAREDYYGQGFTYWGQGTLVTVSR VL: IVMTQSTSSLSASLGDRVTISCRASQDISNYLNWYQQKPDGTVKLLIYYTSRLHSGVPSRFSGSGSGTDYSLTISNLEQEDIATYFCQQGNMFPWTFGGGTKLELK | < 1 | – | –
2B1 monoclonal antibody (antibody, V domains shown, variable region of 2B1; mouse IgG2a heavy chain constant domains; mouse light chain constant domain; Full-length mouse IgG2a; source: ExpiCHO-S, transfected, purified (Protein A); copies: 2 + 2) VH: QVQLQQSGPELVKPGASVKISCKASGYSFTDYNMYWVKQSHGKSLEWIGYFDPYNGGIYYNQNFKGRATLTVDKSSSTAFMHLNSLTSEDSAVYYCARGGGWFRGFTYWGQGTLVTVSR VL: IQMTQSTSSLSASLGDRVTISCRASQDISNYLNWYQQKPDGTLNLLIYYTSRLHSGVPSRFSGSGSGTDYSLTISNLEQEDIATYFCQQGNTLPYTFGGGTKLEIK | – | 2 | –
PeM-19 monoclonal antibody (R2-specific) (antibody, V domains shown, variable region of PeM-19; mouse IgG2a heavy chain constant domains; mouse light chain constant domain; the methods describe the IgG2a format for the anti-pertactin antibodies in general; also called PeM-19 Ab; source: ExpiCHO-S, transfected, purified (Protein A); copies: 2 + 2) VH: EVQLQQSGPELVKPGASVKIPCKASGYTFTDYNMDWVKQSHGKSLEWIGDINPNTGETIYNQKFEGKASLTVDKSSNTVYMELRSLTSEDTAVYYCARVPFYFDYWGQGTTLTVSR VL: DIVMSQSPSSLTVSVGEKVTMSCKSSQSLLYSRDQKNYLAWYQQKPGQSPKMLIHWASTRASGVPDRFTGSGSGTDFTLTISSVKAEDLAVYYCQQYYFYPRTFGGGTKLELK | – | – | binding result [3]: no binding (tested: 2 µM each)
2E9 monoclonal antibody (antibody, V domains shown, 2E9 HC, whole heavy chain as printed: variable region with mouse IgG2a constant domains; 2E9 LC, whole light chain as printed; full-length mouse IgG2a; measured mass 147,603 Da; also called 2E9 mAb; 2E9 Ab; source: ExpiCHO-S, transfected, purified (HiTrap Protein A); copies: 2 + 2) VH: QVQLQQSGPELVKPGASVKMSCKASGYTFTSNYIHWMKQRPGQGLEWIGWIYPGDGSSKYNEKFKGKTTLTADRSSSTAYMLLSSLTSEDSAIYFCANYFYAMDQWGQGTSVTVSR VL: IVLTQSHKFMSTSVGDRVSITCKASQDVSTAVAWYQQKPGQSPKLLIYWASTRHTGVPDRFTGSGSGTDYTLTISSVQAEDLALYYCQQHYSTPWTFGGGTKLEIK | < 1 | – | –
1F2 monoclonal antibody (antibody, V domains shown, variable region of 1F2; mouse IgG2a heavy chain constant domains; mouse light chain constant domain; Full-length mouse IgG2a; also called 1F2 antibody; source: ExpiCHO-S, transfected, purified (Protein A); copies: 2 + 2) VH: EVQLVESGGGLVKPGESLKLSCAASGFTFNSYTMSWVRQTPEKRLEWVATISSGGSYTYYPDSVKGRFTISRDNAKNTLYLQMSSLKSEDTAMYYCIRVGGLFDYWGQGTTLTVSR VL: IQMIQSHKFMSTSVGDRVSITCKASQDVSTAVAWYQQKPGQSPKLLIYWASTRHTGVPDRFTGSGSGTDFTLTISGVQAEDLALYYCQQHYTTPWTFGGGTKLEIK | – | 2 | –
1F2 monoclonal antibody (antibody, V domains shown, 1F2 HC, whole heavy chain as printed: variable region with mouse IgG2a constant domains; 1F2 LC, whole light chain as printed; full-length mouse IgG2a; measured mass 148,317 Da; also called 1F2 mAb; 1F2 Ab; source: ExpiCHO-S, transfected, purified (HiTrap Protein A); copies: 2 + 2) VH: EVQLVESGGGLVKPGESLKLSCAASGFTFNSYTMSWVRQTPEKRLEWVATISSGGSYTYYPDSVKGRFTISRDNAKNTLYLQMSSLKSEDTAMYYCIRVGGLFDYWGQGTTLTVSR VL: IQMIQSHKFMSTSVGDRVSITCKASQDVSTAVAWYQQKPGQSPKLLIYWASTRHTGVPDRFTGSGSGTDFTLTISGVQAEDLALYYCQQHYTTPWTFGGGTKLEIK | < 1 | – | –
2E9 monoclonal antibody (antibody, V domains shown, variable region of 2E9; mouse IgG2a heavy chain constant domains; mouse light chain constant domain; Full-length mouse IgG2a; also called 2E9 mAb; source: ExpiCHO-S, transfected, purified (Protein A); copies: 2 + 2) VH: QVQLQQSGPELVKPGASVKMSCKASGYTFTSNYIHWMKQRPGQGLEWIGWIYPGDGSSKYNEKFKGKTTLTADRSSSTAYMLLSSLTSEDSAIYFCANYFYAMDQWGQGTSVTVSR VL: IVLTQSHKFMSTSVGDRVSITCKASQDVSTAVAWYQQKPGQSPKLLIYWASTRHTGVPDRFTGSGSGTDYTLTISSVQAEDLALYYCQQHYSTPWTFGGGTKLEIK | – | 2 | –
